Reference: article PMC5789857 (Nature Communications, 2018)

Target: TBEV envelope protein (E-protein), strain Hypr, in the purified virion (tick-borne encephalitis virus, strain …, UniProt Q01299)
Test: cell-based or functional assay

B1: Fab fragment of neutralizing mouse monoclonal antibody 19/1786 (Fab, V domains shown)
VH: EVKLEESGGGLVQPGGSLKLSCAASGFTFSSYGMSWVRQTPDKRLELVAATNSDGDSTYYPDSVKGRFTISRDRAKNTLYLQMSSLKSEDTAMYYCTRVLYDYDGEFAYWGQGTLVTVSA
VL: DIVMTQSQKFMSTSVGDRVTVTCKASQNVGTNVAWYQQKPGQSPKGLIYSASYRYSGVPDRFIGSGSGTDFTLTISNVQSGDLAEYFCQQYNNHPLTFGAGTKLELK
With B1 the “neutralisation of TBEV (cytolysis of porcine kidney stable cells), EC50” value was 35 µg/mL.
